The values below come from patent US6998116 (Genentech, dated 2006).

The series deals with the molecule itself. Description: self-association: chemical crosslinking (sulfo-NHS/EDC), SDS-PAGE and silver staining. On the procedure:
Minor 48 kDa and 66 kDa bands were also observed, and probably represent soluble Apo-2 ligand homodimers and homotrimers. Chemical crosslinking of the purified $His10$-Apo-2 ligand by incubation with sulfo-NHS (5 mM) (Pierce Chemical) and EDC (Pierce Chemical) at 25 mM and 50 mM (FIG. 1D, lanes 1 and 2, respectively), shifted the protein into the 66 kDa band primarily.

B1: His10-Apo-2 ligand (purified soluble Apo-2 ligand residues 114-281 with N-terminal Met Gly His10 tag and enterokinase site) (ligand)
chain: MGHHHHHHHHHHSSGHIDDDDKHMVRERGPQRVAAHITGTRGRSNTLSSPNSKNEKALGRKINSWESSRSGHSFLSNLHLRNGELVIHEKGFYYIYSQTYFRFQEEIKENTKNDKQMVQYIYKYTSYPDPILLMKSARNSCWSKDAEYGLYSIYQGGIFELKENDRIFVSVTNEHLIDMDHEASFFGAFLVG
notes: Made in baculovirus-infected Sf9 cells, purified on Ni2+-NTA; also called His10-Apo-2 ECD
For the protein B1, the binding result is given as “binds”.
